In patent publication US20090031441A1 (NATIONAL UNIVERSITY CORPORATION NAGOYA UNIVERSITY, published 2009):

Experiments:
[1] = target: T1, RGL3 (Arabidopsis DELLA protein), yeast two-hybrid prey in pGADT7 AD vector (Arabidopsis, UniProt Q9LF53 1-523); assay: yeast two-hybrid, AtGID1 bait and AtDELLA prey, 10^-5 M GA4 in medium; colony growth (Assay A) and beta-galactosidase activity (Assay B)
T1 construct: also called AtDELLA
T1 sequence (looked up): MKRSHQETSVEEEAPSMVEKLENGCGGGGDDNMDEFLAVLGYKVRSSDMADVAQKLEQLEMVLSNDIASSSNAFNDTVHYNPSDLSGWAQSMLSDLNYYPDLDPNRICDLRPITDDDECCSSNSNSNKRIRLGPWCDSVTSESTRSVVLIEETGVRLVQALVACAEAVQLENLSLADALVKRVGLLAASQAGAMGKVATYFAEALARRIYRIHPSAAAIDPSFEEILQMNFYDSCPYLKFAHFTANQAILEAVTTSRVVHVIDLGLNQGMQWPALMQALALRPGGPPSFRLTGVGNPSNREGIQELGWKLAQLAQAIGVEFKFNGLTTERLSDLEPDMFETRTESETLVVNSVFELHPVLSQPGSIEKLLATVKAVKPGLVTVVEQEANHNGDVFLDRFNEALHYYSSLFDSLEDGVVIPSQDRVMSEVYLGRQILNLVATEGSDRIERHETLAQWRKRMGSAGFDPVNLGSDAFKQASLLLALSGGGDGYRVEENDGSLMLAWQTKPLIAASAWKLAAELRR
Protocol: (§1) Panel A) depicts AtGID1-AtDELLA interaction in the presence of GA in two types of yeast hybrid (Y2H) assays. Each AtGID1 was used as a bait while AtDELLA was a prey. GA₄ (10⁻⁵ M) was added to the medium. The bars indicates β-galactosidase activity when o-nitrophenol-β-D-galactopyranoside was used as a substrate (Assay B). The growth of each transformant in the defined medium for 2 days (Assay A) is shown beneath of each bar graph. The experiment was carried out in quadruplicate. The SD value shown in the figure was determined from three measurements. Panel B) depicts the dose response in AtGID1-RGA interaction in Assay B of Y2H. GA₄ (10⁻⁵ to 10⁻⁹ M) was added to the medium. The experiment was conducted in duplicates. The SD value shown in the figure was determined from three measurements. Panel C) depicts the results of an evaluation of the in vitro GA-binding potency of AtGID1 using AtDELLA. Left panel, 15 minutes after mixing AtGID1c (C), tritiated GA, with an excess amount of non-labeled GA (+) or without non-labeled GA (−). GAI (G) or RGA (R) was added, and then the GA-binding activity in each reaction mixture was measured according to the standard method. Recombinant protein originating from the vector (v) was used as a negative control. The experiment was carried out in duplicates. The SD value was determined from three measurements. Right panel, a profile of Western blotting for recombinant AtDELLA using an antibody to His tag. G, GAI; R, RGA; v, vector; M, molecular weight marker.
(§2) Arabidopsis has five DELLA proteins (RGA, GAI, RGL1, RGL2, and RGL3; collectively designated AtDELLA; Fleet, C. M., and Sun, T.-P. (2005) Curr. Opin. Plant Biol., 8, 77-85; Dill, A., and Sun, T. (2001) Genetics, 159, 777-785); therefore, there are 15 possible combinations of GID1/DELLA proteins. To verify the positive interactions between AtGID1-AtDELLA, two experiments were conducted using the yeast two hybrid (Y2H) system. […] In the second experiment (Assay B), β-galactosidase activity was measured, as reporter gene product of AtGID1-AtDELLA interactions. […]

[2] = target: T2, RGA (Arabidopsis DELLA protein), yeast two-hybrid prey in pGADT7 AD vector (Arabidopsis, UniProt Q9SLH3 1-587); assay: as above
T2 construct: also called AtDELLA
T2 sequence (looked up): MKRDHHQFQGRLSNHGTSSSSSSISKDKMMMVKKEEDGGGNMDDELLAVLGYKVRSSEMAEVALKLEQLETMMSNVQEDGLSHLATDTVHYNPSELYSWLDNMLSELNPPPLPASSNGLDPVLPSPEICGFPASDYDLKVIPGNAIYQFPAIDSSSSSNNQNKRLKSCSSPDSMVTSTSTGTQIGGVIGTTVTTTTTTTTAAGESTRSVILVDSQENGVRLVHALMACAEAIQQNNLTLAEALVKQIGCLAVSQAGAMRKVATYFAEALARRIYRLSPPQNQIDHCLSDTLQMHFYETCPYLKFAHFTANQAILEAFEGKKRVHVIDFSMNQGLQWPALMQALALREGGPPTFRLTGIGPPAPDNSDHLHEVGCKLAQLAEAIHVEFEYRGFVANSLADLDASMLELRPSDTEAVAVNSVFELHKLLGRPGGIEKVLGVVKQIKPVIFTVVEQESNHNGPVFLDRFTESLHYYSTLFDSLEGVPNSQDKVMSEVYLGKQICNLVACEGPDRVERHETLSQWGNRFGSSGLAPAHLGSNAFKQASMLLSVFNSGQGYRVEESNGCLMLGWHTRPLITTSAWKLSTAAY
Protocol: as §1, §2

B1: AtGID1b (At3g63010), yeast two-hybrid bait in pGBKT7 DNA-BD vector (receptor, not shown: small tags and cut ends)
chain: MAGGNEVNLNECKRIVPLNTWVLISNFKLAYKVLRRPDGSFNRDLAEFLDRKVPANSFPLDGVFSFDHVDSTTNLLTRIYQPASLLHQTRHGTLELTKPLSTTEIVPVLIFFHGGSFTHSSANSAIYDTFCRRLVTICGVVVVSVDYRRSPEHRYPCAYDDGWNALNWVKSRVWLQSGKDSNVYVYLAGDSSGGNIAHNVAVRATNEGVKVLGNILLHPMFGGQERTQSEKTLDGKYFVTIQDRDWYWRAYLPEGEDRDHPACNPFGPRGQSLKGVNFPKSLVVVAGLDLVQDWQLAYVDGLKKTGLEVNLLYLKQATIGFYFLPNNDHFHCLMEELNKFVHSIEDSQSKSSPVLLTP
notes: Bait fusion for the Y2H assays; also called Arabidopsis GID1
binding result [1]: binds

B2: AtGID1a (At3g05120), yeast two-hybrid bait in pGBKT7 DNA-BD vector (receptor, not shown: small tags and cut ends)
chain: MAASDEVNLIESRTVVPLNTWVLISNFKVAYNILRRPDGTFNRHLAEYLDRKVTANANPVDGVFSFDVLIDRRINLLSRVYRPAYADQEQPPSILDLEKPVDGDIVPVILFFHGGSFAHSSANSAIYDTLCRRLVGLCKCVVVSVNYRRAPENPYPCAYDDGWIALNWVNSRSWLKSKKDSKVHIFLAGDSSGGNIAHNVALRAGESGIDVLGNILLNPMFGGNERTESEKSLDGKYFVTVRDRDWYWKAFLPEGEDREHPACNPFSPRGKSLEGVSFPKSLVVVAGLDLIRDWQLAYAEGLKKAGQEVKLMHLEKATVGFYLLPNNNHFHNVMDEISAFVNAEC
notes: Bait fusion for the Y2H assays (BD Matchmaker Two-hybrid System 3); also called Arabidopsis GID1
binding result [2]: binds
